IntAct's records for PubMed 35512704

B1: Speckle-type POZ protein (Homo sapiens), O43791 (parent)
chain: MSRVPSPPPPAEMSSGPVAESWCYTQIKVVKFSYMWTINNFSFCREEMGEVIKSSTFSSGANDKLKWCLRVNPKGLDEESKDYLSLYLLLVSCPKSEVRAKFKFSILNAKGEETKAMESQRAYRFVQGKDWGFKKFIRRDFLLDEANGLLPDDKLTLFCEVSVVQDSVNISGQNTMNMVKVPECRLADELGGLWENSRFTDCCLCVAGQEFQAHKAILAARSPVFSAMFEHEMEESKKNRVEINDVEPEVFKEMMCFIYTGKAPNLDKMADDLLAAADKYALERLKVMCEDALCSNLSVENAAEILILADLHSADQLKTQAVDFINYHASDVLETSGWKSMVVSHPHLVAEAYRSLASAQCPFLGPPRKRLKQS

Variants of: B1
Settings: with maga6_human MAGEA6, P43360

effect of a mutation on the interaction | Variant
with no effect | F133L

Variants of: B1
Settings: with m3k1_human MAP3K1, Q13233

effect of a mutation on the interaction | Variant
with no effect | F133L

Variants of: B1
Settings: with mk10_human MAPK10, P53779

effect of a mutation on the interaction | Variant
with no effect | F133L

Variants of: B1
Settings: with mk14_human MAPK14, Q16539

effect of a mutation on the interaction | Variant
with no effect | F133L

Variants of: B1
Settings: with mk03_human MAPK3, P27361
Chain of mk03_human MAPK3, P27361 (P27361 whole entry): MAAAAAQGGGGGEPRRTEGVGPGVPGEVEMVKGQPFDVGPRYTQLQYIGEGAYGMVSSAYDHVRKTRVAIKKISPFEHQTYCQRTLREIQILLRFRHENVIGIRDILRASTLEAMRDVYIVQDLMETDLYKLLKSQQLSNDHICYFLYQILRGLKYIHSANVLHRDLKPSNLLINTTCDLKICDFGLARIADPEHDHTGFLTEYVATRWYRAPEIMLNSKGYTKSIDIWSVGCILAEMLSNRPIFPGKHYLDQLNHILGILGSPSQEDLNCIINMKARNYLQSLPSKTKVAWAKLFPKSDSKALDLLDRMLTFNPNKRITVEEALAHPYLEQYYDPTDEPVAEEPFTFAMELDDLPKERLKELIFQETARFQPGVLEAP

effect of a mutation on the interaction | Variant
with no effect | F133L

Variants of: B1
Settings: with mk04_human MAPK4, P31152
Chain of mk04_human MAPK4, P31152 (P31152 whole entry): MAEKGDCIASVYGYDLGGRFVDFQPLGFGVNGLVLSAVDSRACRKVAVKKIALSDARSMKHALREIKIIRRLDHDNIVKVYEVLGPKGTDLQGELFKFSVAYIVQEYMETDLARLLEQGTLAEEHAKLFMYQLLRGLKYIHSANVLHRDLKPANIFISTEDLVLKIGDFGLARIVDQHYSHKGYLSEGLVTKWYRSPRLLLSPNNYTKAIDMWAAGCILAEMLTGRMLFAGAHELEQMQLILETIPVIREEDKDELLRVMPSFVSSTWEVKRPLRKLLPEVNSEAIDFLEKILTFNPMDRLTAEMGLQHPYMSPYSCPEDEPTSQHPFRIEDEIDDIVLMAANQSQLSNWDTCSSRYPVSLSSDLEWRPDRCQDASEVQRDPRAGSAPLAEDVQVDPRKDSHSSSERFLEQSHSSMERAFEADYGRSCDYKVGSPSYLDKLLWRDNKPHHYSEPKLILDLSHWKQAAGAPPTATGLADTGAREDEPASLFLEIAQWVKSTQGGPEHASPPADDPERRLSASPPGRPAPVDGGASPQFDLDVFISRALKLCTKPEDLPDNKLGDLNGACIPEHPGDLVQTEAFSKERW

effect of a mutation on the interaction | Variant
with no effect | F133L

Variants of: B1
Settings: with mk06_human MAPK6, Q16659

effect of a mutation on the interaction | Variant
with no effect | F133L

Variants of: B1
Settings: with mk07_human MAPK7, Q13164

effect of a mutation on the interaction | Variant
with no effect | F133L

Variants of: B1
Settings: with sin1_human MAPKAP1, Q9BPZ7
Chain of sin1_human MAPKAP1, Q9BPZ7 (Q9BPZ7 whole entry): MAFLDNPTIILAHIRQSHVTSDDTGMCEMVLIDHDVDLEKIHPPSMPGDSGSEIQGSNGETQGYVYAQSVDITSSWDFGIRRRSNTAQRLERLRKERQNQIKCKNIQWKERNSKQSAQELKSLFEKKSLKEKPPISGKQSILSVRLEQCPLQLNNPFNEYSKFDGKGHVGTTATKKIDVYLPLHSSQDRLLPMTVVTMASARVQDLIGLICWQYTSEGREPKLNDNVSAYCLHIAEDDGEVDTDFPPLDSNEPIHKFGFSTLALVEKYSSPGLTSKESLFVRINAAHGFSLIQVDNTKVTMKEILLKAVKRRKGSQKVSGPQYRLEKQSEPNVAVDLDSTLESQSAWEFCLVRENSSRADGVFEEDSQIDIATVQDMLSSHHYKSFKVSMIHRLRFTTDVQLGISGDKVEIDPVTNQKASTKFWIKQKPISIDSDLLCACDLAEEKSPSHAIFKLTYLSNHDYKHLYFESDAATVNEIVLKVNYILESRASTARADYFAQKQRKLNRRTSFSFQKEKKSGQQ

effect of a mutation on the interaction | Variant
with no effect | F133L

Variants of: B1
Settings: with mcl1_human MCL1, Q07820

effect of a mutation on the interaction | Variant
with no effect | F133L

Variants of: B1
Settings: with mdm2_human MDM2, Q00987

effect of a mutation on the interaction | Variant
with no effect | F133L

Variants of: B1
Settings: with mef2a_human MEF2A

effect of a mutation on the interaction | Variant
with no effect | F133L

Variants of: B1
Settings: with mlh1_human MLH1, P40692

effect of a mutation on the interaction | Variant
with no effect | F133L

Variants of: B1
Settings: with mtor_human MTOR

effect of a mutation on the interaction | Variant
with no effect | F133L

Variants of: B1
Settings: with mybb_human MYBL2, P10244

effect of a mutation on the interaction | Variant
with no effect | F133L

Variants of: B1
Settings: with myc_human MYC

effect of a mutation on the interaction | Variant
with no effect | F133L

Variants of: B1
Settings: with mycn_human MYCN

effect of a mutation on the interaction | Variant
with no effect | F133L

Variants of: B1
Settings: with ncoa3_human NCOA3, Q9Y6Q9

effect of a mutation on the interaction | Variant
with no effect | F133L

Variants of: B1
Settings: with ikba_human NFKBIA

effect of a mutation on the interaction | Variant
with no effect | F133L

Variants of: B1
Settings: with notc2_human NOTCH2, Q04721

effect of a mutation on the interaction | Variant
with no effect | F133L

Variants of: B1
Settings: with nox1_human NOX1, Q9Y5S8
Chain of nox1_human NOX1, Q9Y5S8 (Q9Y5S8 whole entry): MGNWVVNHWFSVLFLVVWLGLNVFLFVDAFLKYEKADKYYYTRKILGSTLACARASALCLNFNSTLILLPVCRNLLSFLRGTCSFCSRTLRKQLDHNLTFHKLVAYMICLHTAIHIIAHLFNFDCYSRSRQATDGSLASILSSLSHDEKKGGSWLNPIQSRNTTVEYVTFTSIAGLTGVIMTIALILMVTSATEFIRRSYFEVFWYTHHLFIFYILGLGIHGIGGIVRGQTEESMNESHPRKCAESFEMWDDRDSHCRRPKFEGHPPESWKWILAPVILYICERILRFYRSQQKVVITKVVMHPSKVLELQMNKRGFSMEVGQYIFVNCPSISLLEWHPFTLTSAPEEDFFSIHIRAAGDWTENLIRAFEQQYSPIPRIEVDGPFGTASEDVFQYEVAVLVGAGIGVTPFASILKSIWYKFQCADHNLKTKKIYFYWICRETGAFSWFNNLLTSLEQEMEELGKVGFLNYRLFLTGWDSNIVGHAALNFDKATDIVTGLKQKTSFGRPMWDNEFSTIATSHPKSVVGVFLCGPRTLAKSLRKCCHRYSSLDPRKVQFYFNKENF

effect of a mutation on the interaction | Variant
with no effect | F133L

Variants of: B1
Settings: with ntrk2_human NTRK2, Q16620

effect of a mutation on the interaction | Variant
with no effect | F133L

Variants of: B1
Settings: with ntrk3_human NTRK3, Q16288

effect of a mutation on the interaction | Variant
with no effect | F133L

Variants of: B1
Settings: with pak3_human PAK3, O75914

effect of a mutation on the interaction | Variant
with no effect | F133L

Variants of: B1
Settings: with prkn_human PRKN

effect of a mutation on the interaction | Variant
with no effect | F133L

Variants of: B1
Settings: with pax5_human PAX5, Q02548

effect of a mutation on the interaction | Variant
with no effect | F133L

Variants of: B1
Settings: with pcbp1_human PCBP1, Q15365

effect of a mutation on the interaction | Variant
with no effect | F133L

Variants of: B1
Settings: with pdcd1_human PDCD1, Q15116

effect of a mutation on the interaction | Variant
with no effect | F133L

Variants of: B1
Settings: with pgfrb_human PDGFRB

effect of a mutation on the interaction | Variant
with no effect | F133L

Variants of: B1
Settings: with pdk1_human PDK1, Q15118

effect of a mutation on the interaction | Variant
with no effect | F133L

Variants of: B1
Settings: with PIK3C2B

effect of a mutation on the interaction | Variant
with no effect | F133L

Variants of: B1
Settings: with pk3ca_human PIK3CA

effect of a mutation on the interaction | Variant
with no effect | F133L

Variants of: B1
Settings: with pk3cg_human PIK3CG

effect of a mutation on the interaction | Variant
with no effect | F133L

Variants of: B1
Settings: with p85b_human PIK3R2, O00459

effect of a mutation on the interaction | Variant
with no effect | F133L

Variants of: B1
Settings: with dpod1_human POLD1, P28340

effect of a mutation on the interaction | Variant
with no effect | F133L

Variants of: B1
Settings: with dpoe1_human POLE

effect of a mutation on the interaction | Variant
with no effect | F133L

Variants of: B1
Settings: with ppard_human PPARD

effect of a mutation on the interaction | Variant
with no effect | F133L

Variants of: B1
Settings: with prdm1_human PRDM1, O75626

effect of a mutation on the interaction | Variant
with no effect | F133L

Variants of: B1
Settings: with prex2_human PREX2, Q70Z35

effect of a mutation on the interaction | Variant
with no effect | F133L

Variants of: B1
Settings: with aapk2_human PRKAA2, P54646

effect of a mutation on the interaction | Variant
with no effect | F133L

Variants of: B1
Settings: with prss8_human PRSS8, Q16651

effect of a mutation on the interaction | Variant
with no effect | F133L

Variants of: B1
Settings: with tf65_human RELA

effect of a mutation on the interaction | Variant
with no effect | F133L

Variants of: B1
Settings: with rictr_human RICTOR

effect of a mutation on the interaction | Variant
with no effect | F133L

Variants of: B1
Settings: with rnf43_human RNF43, Q68DV7

effect of a mutation on the interaction | Variant
with no effect | F133L

Variants of: B1
Settings: with ros1_human ROS1, P08922

effect of a mutation on the interaction | Variant
with no effect | F133L

Variants of: B1
Settings: with rl11_human RPL11, P62913

effect of a mutation on the interaction | Variant
with no effect | F133L

Variants of: B1
Settings: with rl5_human RPL5, P46777

effect of a mutation on the interaction | Variant
with no effect | F133L

Variants of: B1
Settings: with rs15_human RPS15, P62841

effect of a mutation on the interaction | Variant
with no effect | F133L

Variants of: B1
Settings: with rptor_human RPTOR

effect of a mutation on the interaction | Variant
with no effect | F133L

Variants of: B1
Settings: with rxra_human RXRA

effect of a mutation on the interaction | Variant
with no effect | F133L

Variants of: B1
Settings: with sdha_human SDHA

effect of a mutation on the interaction | Variant
with no effect | F133L

Variants of: B1
Settings: with setbp_human SETBP1, Q9Y6X0

effect of a mutation on the interaction | Variant
with no effect | F133L

Variants of: B1
Settings: with sf3b1_human SF3B1, O75533

effect of a mutation on the interaction | Variant
with no effect | F133L

Variants of: B1
Settings: with skp2_human SKP2, Q13309

effect of a mutation on the interaction | Variant
with no effect | F133L

Variants of: B1
Settings: with smad1_human SMAD1, Q15797
Chain of smad1_human SMAD1, Q15797 (Q15797 whole entry): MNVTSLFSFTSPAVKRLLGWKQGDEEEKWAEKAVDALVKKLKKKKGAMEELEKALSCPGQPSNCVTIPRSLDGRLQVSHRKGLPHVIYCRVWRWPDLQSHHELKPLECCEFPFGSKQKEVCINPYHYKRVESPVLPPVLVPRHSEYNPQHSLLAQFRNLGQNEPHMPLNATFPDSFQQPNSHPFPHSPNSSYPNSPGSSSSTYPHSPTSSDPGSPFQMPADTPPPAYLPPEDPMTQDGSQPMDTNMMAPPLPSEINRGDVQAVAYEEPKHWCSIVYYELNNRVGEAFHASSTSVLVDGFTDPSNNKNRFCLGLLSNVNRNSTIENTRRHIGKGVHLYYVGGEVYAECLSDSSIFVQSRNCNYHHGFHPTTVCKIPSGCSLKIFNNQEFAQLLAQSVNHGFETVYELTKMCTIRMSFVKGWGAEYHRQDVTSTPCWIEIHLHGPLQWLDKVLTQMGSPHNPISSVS

effect of a mutation on the interaction | Variant
with no effect | F133L

Variants of: B1
Settings: with smca4_human SMARCA4, P51532

effect of a mutation on the interaction | Variant
with no effect | F133L

Variants of: B1
Settings: with snf5_human SMARCB1, Q12824
Chain of snf5_human SMARCB1, Q12824 (Q12824 whole entry): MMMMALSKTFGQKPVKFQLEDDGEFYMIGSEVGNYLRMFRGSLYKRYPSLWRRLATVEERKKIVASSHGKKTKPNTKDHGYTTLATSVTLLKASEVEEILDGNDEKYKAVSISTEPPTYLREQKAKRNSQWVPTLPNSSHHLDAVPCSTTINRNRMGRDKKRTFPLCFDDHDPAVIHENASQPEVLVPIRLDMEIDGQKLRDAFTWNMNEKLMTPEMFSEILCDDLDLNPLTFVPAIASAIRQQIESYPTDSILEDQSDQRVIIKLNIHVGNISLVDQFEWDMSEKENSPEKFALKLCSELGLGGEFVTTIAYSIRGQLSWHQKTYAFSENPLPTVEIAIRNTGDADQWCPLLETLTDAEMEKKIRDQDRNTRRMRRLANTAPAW

effect of a mutation on the interaction | Variant
with no effect | F133L

Variants of: B1
Settings: with smo_human SMO

effect of a mutation on the interaction | Variant
with no effect | F133L

Variants of: B1
Settings: with smuf1_human SMURF1, Q9HCE7

effect of a mutation on the interaction | Variant
with no effect | F133L

Variants of: B1
Settings: with socs1_human SOCS1, O15524

effect of a mutation on the interaction | Variant
with no effect | F133L

Variants of: B1
Settings: with sox10_human SOX10, P56693

effect of a mutation on the interaction | Variant
with no effect | F133L

Variants of: B1
Settings: with sox2_human SOX2, P48431

effect of a mutation on the interaction | Variant
with no effect | F133L

Variants of: B1
Settings: with src_human SRC

effect of a mutation on the interaction | Variant
with no effect | F133L

Variants of: B1
Settings: with whr1_human WHR1, P49842
Chain of whr1_human WHR1, P49842 (P49842 whole entry): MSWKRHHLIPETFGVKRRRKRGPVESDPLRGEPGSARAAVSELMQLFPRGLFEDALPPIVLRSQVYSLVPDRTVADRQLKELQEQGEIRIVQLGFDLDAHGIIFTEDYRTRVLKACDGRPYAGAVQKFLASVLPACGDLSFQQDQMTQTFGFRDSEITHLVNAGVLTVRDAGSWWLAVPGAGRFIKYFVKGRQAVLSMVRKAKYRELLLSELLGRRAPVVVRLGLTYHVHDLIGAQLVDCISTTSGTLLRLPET

effect of a mutation on the interaction | Variant
with no effect | F133L

Variants of: B1
Settings: with stk38_human STK38, Q15208

effect of a mutation on the interaction | Variant
with no effect | F133L

Variants of: B1
Settings: with eloc_human ELOC

effect of a mutation on the interaction | Variant
with no effect | F133L

Variants of: B1
Settings: with tfe2_human TCF3, P15923

effect of a mutation on the interaction | Variant
with no effect | F133L

Variants of: B1
Settings: with tead1_human TEAD1, P28347
Chain of tead1_human TEAD1, P28347 (P28347 whole entry): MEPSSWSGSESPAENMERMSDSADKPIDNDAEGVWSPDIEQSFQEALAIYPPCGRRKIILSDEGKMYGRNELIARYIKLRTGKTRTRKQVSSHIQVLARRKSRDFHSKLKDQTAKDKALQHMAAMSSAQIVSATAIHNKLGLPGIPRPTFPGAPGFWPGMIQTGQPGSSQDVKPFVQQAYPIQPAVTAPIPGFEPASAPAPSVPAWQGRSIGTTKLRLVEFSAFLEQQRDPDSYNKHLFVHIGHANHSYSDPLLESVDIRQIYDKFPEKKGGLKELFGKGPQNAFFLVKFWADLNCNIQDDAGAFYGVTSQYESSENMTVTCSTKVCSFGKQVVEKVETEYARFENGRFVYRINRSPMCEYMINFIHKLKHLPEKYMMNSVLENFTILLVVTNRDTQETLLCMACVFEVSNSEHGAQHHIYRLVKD

effect of a mutation on the interaction | Variant
with no effect | F133L

Variants of: B1
Settings: with tead3_human TEAD3, Q99594

effect of a mutation on the interaction | Variant
with no effect | F133L

Variants of: B1
Settings: with tead4_human TEAD4, Q15561

effect of a mutation on the interaction | Variant
with no effect | F133L

Variants of: B1
Settings: with tet2_human TET2, Q6N021

effect of a mutation on the interaction | Variant
with no effect | F133L

Variants of: B1
Settings: with TMEM106B

effect of a mutation on the interaction | Variant
with no effect | F133L

Variants of: B1
Settings: with tnr14_human TNFRSF14, Q92956
Chain of tnr14_human TNFRSF14, Q92956 (Q92956 whole entry): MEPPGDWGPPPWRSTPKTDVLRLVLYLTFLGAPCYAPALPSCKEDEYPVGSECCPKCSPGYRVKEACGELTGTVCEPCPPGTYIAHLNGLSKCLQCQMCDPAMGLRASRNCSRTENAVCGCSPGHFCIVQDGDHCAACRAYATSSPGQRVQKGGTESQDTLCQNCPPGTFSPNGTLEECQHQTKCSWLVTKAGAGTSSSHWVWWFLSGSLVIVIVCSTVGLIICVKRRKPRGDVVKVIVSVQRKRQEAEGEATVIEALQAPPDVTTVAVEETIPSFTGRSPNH

effect of a mutation on the interaction | Variant
with no effect | F133L

Variants of: B1
Settings: with tshr_human TSHR

effect of a mutation on the interaction | Variant
with no effect | F133L

Variants of: B1
Settings: with vegfa_human VEGFA

effect of a mutation on the interaction | Variant
with no effect | F133L

Variants of: B1
Settings: with vhl_human VHL

effect of a mutation on the interaction | Variant
with no effect | F133L

Variants of: B1
Settings: with wee1_human WEE1, P30291

effect of a mutation on the interaction | Variant
with no effect | F133L

Variants of: B1
Settings: with wwtr1_human WWTR1, Q9GZV5

effect of a mutation on the interaction | Variant
with no effect | F133L

Variants of: B1
Settings: with xpo1_human XPO1, O14980

effect of a mutation on the interaction | Variant
with no effect | F133L

Variants of: B1
Settings: with asxl2_human ASXL2, Q76L83

effect of a mutation on the interaction | Variant
causing an interaction | F133L

Variants of: B1
Settings: with ufo_human AXL

effect of a mutation on the interaction | Variant
causing an interaction | F133L

Variants of: B1
Settings: with birc2_human BIRC2, Q13490
Chain of birc2_human BIRC2, Q13490 (Q13490 whole entry): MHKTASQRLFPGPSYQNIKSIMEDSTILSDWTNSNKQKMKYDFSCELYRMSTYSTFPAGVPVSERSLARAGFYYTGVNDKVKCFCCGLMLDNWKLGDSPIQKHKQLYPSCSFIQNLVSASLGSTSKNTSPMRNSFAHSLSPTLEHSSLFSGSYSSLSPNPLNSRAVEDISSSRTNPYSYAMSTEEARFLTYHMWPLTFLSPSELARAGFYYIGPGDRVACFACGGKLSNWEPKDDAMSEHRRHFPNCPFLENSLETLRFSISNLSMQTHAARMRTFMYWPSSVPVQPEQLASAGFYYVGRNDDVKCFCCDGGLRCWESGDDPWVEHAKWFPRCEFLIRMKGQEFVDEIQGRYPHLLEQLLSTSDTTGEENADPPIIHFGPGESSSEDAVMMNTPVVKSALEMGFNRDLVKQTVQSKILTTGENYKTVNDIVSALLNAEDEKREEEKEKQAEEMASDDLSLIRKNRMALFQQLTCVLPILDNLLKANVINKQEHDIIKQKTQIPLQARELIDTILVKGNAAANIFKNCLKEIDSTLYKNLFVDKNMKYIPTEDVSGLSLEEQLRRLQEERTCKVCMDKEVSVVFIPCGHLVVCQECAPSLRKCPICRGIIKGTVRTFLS

effect of a mutation on the interaction | Variant
causing an interaction | F133L

Variants of: B1
Settings: with cul4b_human CUL4B

effect of a mutation on the interaction | Variant
causing an interaction | F133L

Variants of: B1
Settings: with jak1_human JAK1, P23458

effect of a mutation on the interaction | Variant
causing an interaction | F133L

Variants of: B1
Settings: with pk3cb_human PIK3CB

effect of a mutation on the interaction | Variant
causing an interaction | F133L

Variants of: B1
Settings: with tsc2_human TSC2, P49815

effect of a mutation on the interaction | Variant
causing an interaction | F133L

Variants of: B1
Settings: with birc2_human BIRC2, Q13490
Remark: another data set of the same source

effect of a mutation on the interaction | Variant
increasing interaction strength | F133L

Variants of: B1
Settings: with cblb_human CBLB

effect of a mutation on the interaction | Variant
causing an interaction | F133L

Variants of: B1
Settings: with e2f5_human E2F5, Q15329

effect of a mutation on the interaction | Variant
causing an interaction | F133L

Variants of: B1
Settings: with gata1_human GATA1, P15976
Chain of gata1_human GATA1, P15976 (P15976 whole entry): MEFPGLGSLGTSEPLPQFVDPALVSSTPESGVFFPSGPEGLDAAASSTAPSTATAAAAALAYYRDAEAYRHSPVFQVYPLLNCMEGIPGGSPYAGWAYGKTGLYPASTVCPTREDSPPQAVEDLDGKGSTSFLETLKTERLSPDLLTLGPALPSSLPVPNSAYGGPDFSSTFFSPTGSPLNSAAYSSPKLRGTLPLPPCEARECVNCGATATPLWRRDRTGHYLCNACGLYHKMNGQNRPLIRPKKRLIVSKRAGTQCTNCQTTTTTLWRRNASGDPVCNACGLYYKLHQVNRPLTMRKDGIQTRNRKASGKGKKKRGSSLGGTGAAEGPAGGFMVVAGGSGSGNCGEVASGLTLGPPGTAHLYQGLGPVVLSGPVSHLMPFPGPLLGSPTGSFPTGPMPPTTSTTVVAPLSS

effect of a mutation on the interaction | Variant
increasing interaction strength | F133L

Variants of: B1
Settings: with igf1r_human IGF1R

effect of a mutation on the interaction | Variant
increasing interaction strength | F133L

Variants of: B1
Settings: with esr1_human ESR1, P03372

effect of a mutation on the interaction | Variant
decreasing interaction strength | F133L
